To fix the notation:
T1: C-Tir, C-terminal cytosolic region of Tir of EPEC O127:H6, residues 388-550, unphosphorylated (Enteropathogenic E. coli (EPEC) O127:H6, UniProt B7UM99 388-550)
T1 construct: Translocated intimin receptor Tir, EPEC O127:H6, residues 388-550; Trx-His6 tag cleaved on-column with HRV-3C protease; 15N-labelled for the NMR titration; also called unphosphorylated C-Tir; Tir C-terminus; source: E. coli BL21 Star (DE3) pLysS, lysed by boiling, purified (Strep-Tactin XT, Superdex 200); not shown: Trx, N-terminal, cleaved; His6, N-terminal, cleaved; Strep-tag, C-terminal, kept
T1 sequence: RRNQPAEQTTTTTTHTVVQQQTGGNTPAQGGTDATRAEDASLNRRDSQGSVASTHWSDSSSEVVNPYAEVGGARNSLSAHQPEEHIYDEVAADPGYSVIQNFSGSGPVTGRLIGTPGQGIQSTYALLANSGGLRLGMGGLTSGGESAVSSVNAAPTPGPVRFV

T2: pC-Tir, C-Tir (residues 388-550 of EPEC O127:H6 Tir) phosphorylated by Fyn at four tyrosines (Enteropathogenic E. coli (EPEC) O127:H6, UniProt B7UM99 388-550, phosphotyrosine at Y454, Y474, Y483 and Y511)
T2 construct: Translocated intimin receptor Tir, EPEC O127:H6, residues 388-550; Same construct as m4, phosphorylated in vitro; 15N-labelled for the NMR titration; also called 4-fold phosphorylated state; phosphorylated C-Tir; not shown: Trx, N-terminal, cleaved; His6, N-terminal, cleaved; Strep-tag, C-terminal, kept
T2 sequence: T1 sequence

T3: C-terminal SH2 domain (C-SH2) of human phosphatase SHP-1, residues 101-217 (human, UniProt P29350 101-217)
T3 chain: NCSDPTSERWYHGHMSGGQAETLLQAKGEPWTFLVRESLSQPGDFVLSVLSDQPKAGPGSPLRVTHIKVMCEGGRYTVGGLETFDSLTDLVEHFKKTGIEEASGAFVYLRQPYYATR

B1: C-terminal SH2 domain (C-SH2) of human phosphatase SHP-1, residues 101-217 (domain or fragment, UniProt P29350 101-217, looked up)
chain: T3 chain
notes: Tyrosine-protein phosphatase SHP-1, human, C-terminal SH2 domain, residues 101-217; PCR-amplified from the vector pGEX SHP-1(NC)-SH2; Trx-His6 tag cleaved on-column with HRV-3C protease; unlabelled in the NMR titrations; also called SHP-1 C-SH2 domain; source: E. coli BL21 Star (DE3) pLysS, purified (Strep-Tactin XT, Superdex 200); not shown: Trx, N-terminal, cleaved; His6, N-terminal, cleaved
B2: NS-Tir, N-terminal structured region of Tir (N-Tir 61-200) of EPEC O127:H6 (domain or fragment)
chain: VDSRDIPGLPTNPSRLAAATSETCLLGGFEVLHDKGPLDILNTQIGPSAFRVEVQADGTHAAIGEKNGLEVSVTLSPQEWSSLQSIDTEGKNRFVFTGGRGGSGHPMVTVASDIAEARTKILAKLDPDNHGGRQPKDVDT
notes: Translocated intimin receptor Tir, EPEC O127:H6, residues 61-200; Trx-His6 tag cleaved in vivo by co-expressed TEV protease; source: E. coli BL21 Star (DE3) pLysS, purified (Strep-Tactin XT, Superdex 200); not shown: Trx, N-terminal, cleaved; His6, N-terminal, cleaved; Strep-tag, C-terminal, kept
B3: N-Tir, N-terminal cytosolic region of the translocated intimin receptor (Tir) of EPEC O127:H6, residues 1-233 (domain or fragment)
chain: MPIGNLGNNVNGNHLIPPAPPLPSQTDGAARGGTGHLISSTGALGSRSLFSPLRNSMADSVDSRDIPGLPTNPSRLAAATSETCLLGGFEVLHDKGPLDILNTQIGPSAFRVEVQADGTHAAIGEKNGLEVSVTLSPQEWSSLQSIDTEGKNRFVFTGGRGGSGHPMVTVASDIAEARTKILAKLDPDNHGGRQPKDVDTRSVGVGSASGIDDGVVSETHTSTTNSSVRSDPK
notes: Translocated intimin receptor Tir, EPEC O127:H6, residues 1-233, from a synthetic E. coli codon-optimised gene of the full-length protein; Trx-His6 tag cleaved in vivo by co-expressed TEV protease; also called Tir's N-terminal tail; source: E. coli BL21 Star (DE3) pLysS, purified (Strep-Tactin XT, Superdex 200); not shown: Trx, N-terminal, cleaved; His6, N-terminal, cleaved; Strep-tag, …
B4: pC-Tir, C-Tir (residues 388-550 of EPEC O127:H6 Tir) phosphorylated by Fyn at four tyrosines (domain or fragment)
chain: T1 sequence
modifications: phosphotyrosine at Y454, Y474, Y483 and Y511

In data set [1] the target is B4. In words: NMR; site pY454 (apparent local Kd).
Data set [2] addresses B4. Description: NMR; site pY474 (apparent local Kd).
For data set [3], the target named is B4. In words: NMR; site pY483 (apparent local Kd).
Data set [4] addresses B4. Description: NMR; site pY511 (apparent local Kd).
For data set [5], the target named is T1, C-Tir, C-terminal cytosolic region of …. Description: NMR titration; unlabelled C-SH2 added to 15N-labelled unphosphorylated C-Tir (2.0 and 8.0 equivalents shown); [15N-1H]-HSQC peak intensities of A512-A515 fitted globally to a 1:1 model; apparent KD. Conditions: both partners purified.
The target of data set [6] is T2, pC-Tir, C-Tir (residues 388-550 of EPEC …). Description: NMR titration; 15N-labelled pC-Tir (95 uM) titrated with 0.25, 0.5, 0.75, 1, 2, 4 and 6 equivalents of unlabelled C-SH2; [15N-1H]-HSQC peak intensities clustered by phosphorylation site and fitted globally to a 1:1 model; apparent KD for each site. Conditions: both partners purified.
Data set [7] concerns the molecule itself. In words: SEC-SAXS; synchrotron SEC-SAXS, B21 beamline, Shodex KW403-4F column; 100 mM Tris-HCl pH 8.0, 150 mM NaCl, 2 mM DTT, 1 mM EDTA; 50 uL of 10.0-25.0 mg/mL injected; dimeric single-peak region. (Size exclusion chromatography separates by hydrodynamic size, large species first.)
The target in data set [8] is T3, C-terminal SH2 domain (C-SH2) of human …. Description: NMR; site pY454, apparent.
The target is the same in data set [9]. In words: NMR; site pY474, apparent.
Data set [10] shares this target. In words: NMR; site pY483, apparent.
Data set [11] has the same target. In words: NMR; site pY511, apparent.

As to B1, the Kd in data set [1] is 86.1 µM; in [2], 2.66 µM; in data set [3], 9.25 µM; in data set [4] it was 6.94 µM; in data set [5], around 68.5 µM. For the same molecule, the “fold enhancement of binding at the Y511 site against unphosphorylated C-Tir” value in data set [6] is around 10 fold.

As to B2, in [7], the stoichiometry N – broadly, the number of molecules, sites or subunits per partner or assembly – stood at 2.

As to B3, the “stoichiometry N” value in data set [7] is 2.

B4: the Kd is 86.1 µM in data set [8], 2.66 µM in data set [9], 9.25 µM in data set [10] and 6.94 µM in data set [11].
